The values below come from patent publication US20220251173A1.

In assay [1] the target is hepatitis B virus surface antigen (HBsAg) (hepatitis B virus). Nature of the assay: ELISA on commercial HBsAg plate, purified antibody, incubation and washes at pH 7.4, GAH-HRP, OD450/630.
The target is the same in assay [2]. Description: ELISA on commercial HBsAg plate, pH 7.4, quantified transfection supernatant.
The target is the same in assay [3]. Nature of the assay: ELISA on commercial HBsAg plate, wash/incubation at pH 6.0, quantified transfection supernatant. On the technique in general: In an ELISA, binding on a coated surface is turned into a signal by an enzyme label.
Assay [4] shares this target. Nature of the assay: ELISA on commercial HBsAg plate, ratio of EC50 at pH 6.0 to pH 7.4.

Changes are numbered by the printed parent chain.

B1: D3 DY (antibody, human IgG1, kappa, V domains shown)
VH: EVQLQESGPGLVKPSQTLSLTCAVSGSSITHGYHYNWIRQFPGNKLEWIGYIHYDGSVLYNPSLENRVTITRDTSKNQFFLKLSSVTAEDTAKYYCASGFDHWGQGTTLTVSS
VL: DVVMTQSPLSLPVTLGEPASISCRSSQSLVHSYGDNYLHWYLQKPGQSPKLLIYKVSNRFSGVPDRFSGSGSGTDFTLKISRVETEDLGVYYCSQNTHVPYTFGGGTKLEIKR
The EC50 (read off the curve) is the concentration that produces a half-maximal response. On to B1, for which, in assay [1], the EC50 (read off the curve) was 50 ng/mL.

B2: D4 DY (antibody, human IgG1, kappa, V domains shown)
VH: B1 VH with Y35W
VL: B1 VL with V99L
For B2, the concentration for a half-maximal effect (EC50 (read off the curve)) in assay [1] came to 60 ng/mL.

B3: D5 DY (antibody, human IgG1, kappa, V domains shown)
VH: B1 VH with Y35W
VL: B1 VL
Take B3: the EC50 (read off the curve) in assay [1] amounted to 40 ng/mL.

B4: C32 (antibody, human IgG1, kappa, V domains shown)
VH: B1 VH with H31Y, G32R, Y35W, H53N, L59H
VL: B1 VL with N36T, V99L
For orientation: EC50 means the concentration that produces a half-maximal response. In the case of B4, the EC50 in assay [2] was 1.33 µg/mL; in assay [3] it was 2.25 µg/mL. Further, the EC50(pH 6.0)/EC50(pH 7.4) in assay [4] amounted to 1.69.
